Measured values from patent publication US20160186149A1.

Tests used:
[1] = biological target: mannose-6-phosphate (M6P) receptor; test: M6P receptor affinity column (Affi-Gel 15), 6 ug GALNS loaded, eluted with mannose-6-phosphate gradient, quantified by GALNS ELISA
[2] = biological target: mannose-6-phosphate (M6P) receptor; test: M6P receptor plate binding assay: receptor coated at 4 ug/mL, GALNS 0.16-10 nM, bound GALNS read by enzyme activity, single-site binding fit
[3] = biological target: mannose-6-phosphate (M6P) receptor; test: M6P receptor plate binding assay

B1: recombinant human N-acetylgalactosamine-6-sulfatase (GALNS), purified, produced from G71S clone 4 co-expressing human SUMF1 (enzyme)
chain: APQPPNILLLLMDDMGWGDLGVYGEPSRETPNLDRMAAEGLLFPNFYSANPLCSPSRAALLTGRLPIRNGFYTTNAHARNAYTPQEIVGGIPDSEQLLPELLKKAGYVSKIVGKWHLGHRPQFHPLKHGFDEWFGSPNCHFGPYDNKARPNIPVYRDWEMVGRYYEEFPINLKTGEANLTQIYLQEALDFIKRQARHHPFFLYWAVDATHAPVYASKPFLGTSQRGRYGDAVREIDDSIGKILELLQDLHVADNTFVFFTSDNGAALISAPEQGGSNGPFLCGKQTTFEGGMREPALAWWPGHVTAGQVSHQLGSIMDLFTTSLALAGLTPPSDRAIDGLNLLPTLLQGRLMDRPIFYYRGDTLMAATLGQHKAHFWTWTNSWENFRQGIDFCPGQNVSGVTTHNLEDHTKLPLIFHLGRDPGERFPLSFASAEYQEALSRITSVVQQHQEALVPAQPQLNVCNWAVMNWAPPGCEKLGKCLTPPESIPKKCLWSH
modifications: Cys at position 53 of the precursor (position 79 of SEQ ID NO:4) converted to Calpha-formylglycine (FGly), about 90%; N-linked glycosylation at Asn178 (bis-phosphorylated mannose 7, BPM7) and Asn397 (oligomannose-type), precursor numbering; 0.58 mol M6P (BPM7)/mol GALNS
[1]
  M6P Receptor Column Binding: % Bound: 56%
[2]
  Kd: 2.4 nM

B2: recombinant human N-acetylgalactosamine-6-sulfatase (GALNS), purified, produced from G71S clone C2 co-expressing human SUMF1 (enzyme)
chain: APQPPNILLLLMDDMGWGDLGVYGEPSRETPNLDRMAAEGLLFPNFYSANPLCSPSRAALLTGRLPIRNGFYTTNAHARNAYTPQEIVGGIPDSEQLLPELLKKAGYVSKIVGKWHLGHRPQFHPLKHGFDEWFGSPNCHFGPYDNKARPNIPVYRDWEMVGRYYEEFPINLKTGEANLTQIYLQEALDFIKRQARHHPFFLYWAVDATHAPVYASKPFLGTSQRGRYGDAVREIDDSIGKILELLQDLHVADNTFVFFTSDNGAALISAPEQGGSNGPFLCGKQTTFEGGMREPALAWWPGHVTAGQVSHQLGSIMDLFTTSLALAGLTPPSDRAIDGLNLLPTLLQGRLMDRPIFYYRGDTLMAATLGQHKAHFWTWTNSWENFRQGIDFCPGQNVSGVTTHNLEDHTKLPLIFHLGRDPGERFPLSFASAEYQEALSRITSVVQQHQEALVPAQPQLNVCNWAVMNWAPPGCEKLGKCLTPPESIPKKCLWSH
modifications: Cys at position 53 of the precursor (position 79 of SEQ ID NO:4) converted to Calpha-formylglycine (FGly); N-linked glycosylation at Asn178 (BPM7) and Asn397; 0.69 mol M6P/mol GALNS
[3]
  Kd: 5.7 nM
